Measured values as given in publication PMC5156911, “Structural implications of Ca^2+-dependent actin-bundling function of human EFhd2/Swiprosin-1” (Scientific Reports, 2016).
No end group written: not given here.

B1: CC2: EFhd2 coiled-coil domain (residues 199-240) with GlyGlyCys at the C-terminus (domain or fragment, human)
chain: QAINVSSRFEEEIKAEQEERKKQAEEMKQRKAAFKELQSTFKGGC
modifications: also: disulfide-linked dimer via Cys
notes: human EFhd2/Swiprosin-1 predicted coiled-coil domain, residues 199-240; engineered GlyGlyCys at the C-terminus of the fragment; source: E. coli, purified (modified pET-21a, same procedure as the other EFhd2 proteins); not shown: His6, N-terminal, kept
B2: CC1: EFhd2 coiled-coil domain (residues 199-240) with CysGlyGly at the N-terminus (domain or fragment, human)
chain: CGGQAINVSSRFEEEIKAEQEERKKQAEEMKQRKAAFKELQSTFK
notes: engineered CysGlyGly at the N-terminus of the fragment; human EFhd2/Swiprosin-1 predicted coiled-coil domain, residues 199-240; source: E. coli, purified (pGEX-4T-1; GST removed by thrombin); not shown: GST, N-terminal, cleaved

Molecular target: the molecule itself
Assay: cross-linking; disulfide cross-linking of engineered terminal Cys residues; purified fragments on SDS-PAGE under non-reducing conditions (only a monomer band under reducing conditions)

Protein	stoichiometry N
B1	2
B2	2
